The target of series [1] is T1, His-MIF (His-tag/T7 gene 10 leader/Xpress-MIF fusion) (UniProt P14174 P14174:1-115).
T1 chain: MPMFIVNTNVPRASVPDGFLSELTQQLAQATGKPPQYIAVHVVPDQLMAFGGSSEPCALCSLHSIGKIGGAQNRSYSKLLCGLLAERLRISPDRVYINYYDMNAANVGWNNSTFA
The series can be described thus: SPR; 600 nM His-MIF; excellent binding. The note with it: MIF 115 aa; ATGen. On the procedure:
(§1) A molecular interaction between each of the RNA aptamers and each of fusion proteins, i.e., a binding ability of each of the RNA aptamers to each of the fusion proteins was analyzed using surface plasmon resonance. The analysis of the binding ability was performed using BiacoreX (GE Healthcare UK Ltd.) according to the instruction thereof. Specifically, first, polyadenine having 20 bases was added to the 3′-end of the RNA aptamer. Thus, polyadenine-added RNA aptamer was prepared. This was then heated at 95° C. for 5 minutes and rapidly cooled on ice. Biotinylated polythymine having 20 bases obtained by biotinylating the 5′-end of polythymine had been bound to a streptavidin chip (Sensor chip SA, GE Healthcare UK Ltd.). The polyadenine-added RNA aptamer was introduced into a flow cell on the streptavidin chip using a running buffer. At this stage, the polyadenine-added RNA aptamer was immobilized on the chip via the biotinylated polythymine by complementary binding between poly A of the polyadenine-added RNA aptamer and the biotinylated polythymine. […] Subsequently, HBS (Hepes Buffered Saline) containing the fusion protein with a predetermined concentration was introduced into the chip using a running buffer, and a signal (RU) was measured. […]
A binding ability of each of these RNA aptamers to His-MIF was analyzed by surface plasmon resonance in the same manner as in “1. […]
(In general: In SPR one partner is held on a chip, and binding of the other changes the refractive index at the surface.)

In series [2] the target is T1, His-MIF (His-tag/T7 gene 10 …). The series can be described thus: SPR; 600 nM His-MIF. The note with it: MIF 115 aa; ATGen. On the procedure: (§2) A molecular interaction between each of the RNA aptamers and each of fusion proteins, i.e., a binding ability of each of the RNA aptamers to each of the fusion proteins was analyzed using surface plasmon resonance. The analysis of the binding ability was performed using BiacoreX (GE Healthcare UK Ltd.) according to the instruction thereof. Specifically, first, polyadenine having 20 bases was added to the 3′-end of the RNA aptamer. Thus, polyadenine-added RNA aptamer was prepared. This was then heated at 95° C. for 5 minutes and rapidly cooled on ice. Biotinylated polythymine having 20 bases obtained by biotinylating the 5′-end of polythymine had been bound to a streptavidin chip (Sensor chip SA, GE Healthcare UK Ltd.). The polyadenine-added RNA aptamer was introduced into a flow cell on the streptavidin chip using a running buffer. At this stage, the polyadenine-added RNA aptamer was immobilized on the chip via the biotinylated polythymine by complementary binding between poly A of the polyadenine-added RNA aptamer and the biotinylated polythymine. The polyadenine-added RNA aptamer was caused to bind to the biotinylated polythymine until a resonance unit (RU) (resonance unit; 1 RU=1 pg/mm²) reaches 700 RU. Subsequently, HBS (Hepes Buffered Saline) containing the fusion protein with a predetermined concentration was introduced into the chip using a running buffer, and a signal (RU) was measured. The composition of the running buffer includes 10 mmol/L HEPES (4-(2-hydroxyethyl)-1-piperazine ethanesulfonic acid), 150 mmol/L sodium chloride, 0.1 mmol/L magnesium acetate, and 0.01% Tween (registered trademark) 20 (pH 7.2). As a control, an introduction of the fusion protein and a measurement of a signal were performed in the same manner as described above using a chip to which biotinylated polythymine had been bound, on which no polyadenine-added RNA aptamer had been immobilized.
A binding ability of each of these RNA aptamers to His-MIF was analyzed by surface plasmon resonance in the same manner as in “1. (4) Molecular interaction analysis” of Example 1.

For series [3] the target is unchanged. The series can be described thus: SPR; same as shot47. To be noted: MIF 115 aa, ATGen, stem-loop. On the procedure:
as §1
A binding ability of each of downsized RNA aptamers to His-MIF as a fusion protein was analyzed by the molecular interaction analysis. […]

The target is the same in series [4]. The series can be described thus: SPR; 10 mM HEPES, 150 mM NaCl, 0.1 mM Mg acetate, 0.01% Tween 20, pH 7.2; RNA immobilised. The note with it: MIF 115 aa; ATGen; label: biotin-T20 hybridised to tail; stem-loop. On the procedure:
as §1

Series [5] shares this target. The series can be described thus: SPR; 600 nM His-MIF. The note with it: MIF 115 aa; ATGen; label: biotin-T20 hybridised to tail; stem-loop. On the procedure:
as §2
A binding ability of each of the RNA pools in the respective rounds to His-MIF was analyzed by surface plasmon resonance in the same manner as in “1. (4) Molecular interaction analysis” of Example 1. […] N40 (control RNA) also was analyzed in the same manner as mentioned above.

B1: His_1 (ssRNA)
RNA: GGGACGCUCACGUACGCUCAGGUGAACUGGUCCGCAUUUAGCUUUCUUAUUUGCGGGUAUUCAGUGCCUGGACGUGCAGU
modifications: 3' A20 tail for capture
In the case of B1, in series [1], the binding result is “binds”.

B2: His_6 (ssRNA)
RNA: GGGACGCUCACGUACGCUCAGGUGUAUUGGAUUUGCUCCGAGGGUGUAGACCCCACAGAUUCAGUGCCUGGACGUGCAGU
modifications: 3' A20 tail for capture
For B2, in series [2], the binding result is reported as “binds”.

B3: His_3 (ssRNA)
RNA: GGGACGCUCACGUACGCUCAGGUGUACUGGCACUACUGAAAUUUCAUUUGAGUAGGUCUGUCAGUGCCUGGACGUGCAGU
modifications: 3' A20 tail for capture
Turning to B3, in series [2], the binding result is “binds”.

B4: His_10 (ssRNA)
RNA: GGGACGCUCACGUACGCUCAUUAGCUUAGCUUCAUGCCCGGGUGUACUGGAGAUCUCUUAUCAGUGCCUGGACGUGCAGU
modifications: 3' A20 tail for capture
Take B4: in series [2], the binding result is given as “binds”.

B5: His_2 (ssRNA)
RNA: GGGACGCUCACGUACGCUCAGGUGAAUUGGCCGCCGUUCUUUCCGUGGAAUGACGCGAUGUCAGUGCCUGGACGUGCAGU
modifications: 3' A20 tail for capture
B5: the binding result in series [2] is given as “binds”.

B6: His_4 (ssRNA)
RNA: GGGACGCUCACGUACGCUCAUAAGGGUGUACUGGCGAUUGUUGGGACGCACUUCAAUUUGUCAGUGCCUGGACGUGCAGU
modifications: 3' A20 tail for capture
For the molecule B6, the binding result in series [2] is “binds”.

B7: His_5 (ssRNA)
RNA: GGGACGCUCACGUACGCUCAGAACCCGUAUUGGUCACAGGUGGAUUGGUCUAUAUUGUUAUCAGUGCCUGGACGUGCAGU
modifications: 3' A20 tail for capture
In the case of B7, the binding result in series [2] is recorded as “binds”.
As for GGGUAUAUUGGCGCCUUCGUGGAAUGUCAGUGCCUGG (ssRNA, 3' A20 tail for capture) [shot47sss], the binding result in series [3] (label: biotin-T20 hybridised to tail (ELISA)) is recorded as “binds”.

B8: shot47 (ssRNA)
RNA: GGGACGCUCACGUACGCUCACGUCCGAUCGAUACUGGUAUAUUGGCGCCUUCGUGGAAUGUCAGUGCCUGGACGUGCAGU
modifications: 3' A20 tail for capture
In the case of B8, in series [4], binding was characterised by a dissociation constant (Kd) of 3.78 pM. The binding signal in series [5] stood at 1.88 His-MIF/RNA bonds.

B9: #47s (ssRNA)
RNA: GGGUACGCUCAGGUAUAUUGGCGCCUUCGUGGAAUGUCAGUGCCUGGACGUGCAGU
modifications: 3' A20 tail for capture
Turning to B9, the binding result in series [3] is “binds”.

What is called Kd is the constant that tells how readily two partners part at equilibrium. Read a low Kd as tighter binding.

These data come from patent publication US20120129720, “APTAMER THAT RECOGNIZES PEPTIDE” (KANAGAWA PREFECTURAL HOSPITAL ORGANIZATION, published 2012).
